Source: article PMC12344292, “Structural basis for membrane microdomain formation by a human Stomatin complex” (Nature Communications, 2025)

Target: the molecule itself
Test: cryo-EM structure; single-particle analysis of native membrane vesicles holding ALFA-tagged Stomatin, isolated on ALFA Selector CE resin and eluted with 0.2 mM ALFA peptide; 20 mM K-HEPES pH 7.4, 300 mM KCl, 5 mM DTT; C16 then local C8 symmetry

B1: human Stomatin (natural protein, UniProt P27105-1 1-288, looked up)
chain: MAEKRHTRDSEAQRLPDSFKDSPSKGLGPCGWILVAFSFLFTVITFPISIWMCIKIIKEYERAIIFRLGRILQGGAKGPGLFFILPCTDSFIKVDMRTISFDIPPQEILTKDSVTISVDGVVYYRVQNATLAVANITNADSATRLLAQTTLRNVLGTKNLSQILSDREEIAHNMQSTLDDATDAWGIKVERVEIKDVKLPVQLQRAMAAEAEASREARAKVIAAEGEMNASRALKEASMVITESPAALQLRYLQTLTTIAAEKNSTIVFPLPIDMLQGIIGAKHSHLG
notes: Stomatin, human, UniProt P27105-1; full-length protein in its membrane environment; The final atomic model includes residues 14-18 and 29-278; The 16 identical chains adopt two alternating conformations (Conformer A and B); also called N-terminal ALFA-tagged human Stomatin; Stomatin complex; source: HEK293S GnTI- cells infected with BacMam baculovirus (pEG BacMam); isolated in native membrane …
B1 was tested, and the “stoichiometry N” value was 16.
